{"source": "paper PMC10828404", "biological_target": "ACE2 receptor on ACE2-expressing HEK 293T cells (UniProt Q9BYF1)", "sequence (Q9BYF1 18-805)": "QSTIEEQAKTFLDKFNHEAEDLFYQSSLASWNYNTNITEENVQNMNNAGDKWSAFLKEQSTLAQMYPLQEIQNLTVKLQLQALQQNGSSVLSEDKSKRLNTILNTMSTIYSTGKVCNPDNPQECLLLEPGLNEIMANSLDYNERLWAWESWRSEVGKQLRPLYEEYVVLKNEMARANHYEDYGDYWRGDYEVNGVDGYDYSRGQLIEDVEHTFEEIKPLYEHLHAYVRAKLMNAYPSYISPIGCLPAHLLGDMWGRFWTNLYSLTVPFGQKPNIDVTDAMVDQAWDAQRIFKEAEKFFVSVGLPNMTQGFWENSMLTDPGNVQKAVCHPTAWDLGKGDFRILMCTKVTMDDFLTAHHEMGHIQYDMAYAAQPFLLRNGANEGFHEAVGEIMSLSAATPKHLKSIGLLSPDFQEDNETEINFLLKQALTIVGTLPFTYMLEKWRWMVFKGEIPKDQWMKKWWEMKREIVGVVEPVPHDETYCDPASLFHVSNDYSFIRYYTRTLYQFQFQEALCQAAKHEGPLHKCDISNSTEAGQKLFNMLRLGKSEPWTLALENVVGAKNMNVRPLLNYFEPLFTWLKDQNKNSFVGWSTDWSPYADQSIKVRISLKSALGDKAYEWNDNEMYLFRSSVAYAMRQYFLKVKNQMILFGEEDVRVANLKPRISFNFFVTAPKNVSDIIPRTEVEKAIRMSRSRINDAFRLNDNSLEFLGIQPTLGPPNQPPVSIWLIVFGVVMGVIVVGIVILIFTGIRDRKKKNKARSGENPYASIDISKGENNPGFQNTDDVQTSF", "assay": "flow cytometry on cells"}
{"substance": "DNA-VLP-Cy5-30x (icosahedral DNA origami displaying 30 copies of the SARS-CoV-2 RBD and 5 copies of Cy5)", "values": [{"measurement": "fold increase in median fluorescence intensity (corrected for Cy5 brightness per RBD) against monomeric RBD-Cy5", "result": 10, "unit": "fold"}]}
